Experimental data as given in article PMC1849897 (Nucleic Acids Research, 2007).

Target: the molecule itself
Experiment: SEC

B1: Py-DmBLM (Drosophila Bloom's syndrome helicase homolog with an N-terminal polyoma epitope tag) (enzyme)
chain: not shown
stoichiometry N: ~7
